Reference: publication PMC9295118, “Tungsten Enzyme Using Hydrogen as an Electron Donor to Reduce Carboxylic Acids and NAD^+” (ACS Catalysis, 2022)

T1: BaDH (Aromatoleum aromaticum, UniProt Q5P459)
T1 construct: gene adh; recombinant, expressed in E. coli BL21(DE3), purified; details in supplement
T1 sequence (Q5P459 1-362): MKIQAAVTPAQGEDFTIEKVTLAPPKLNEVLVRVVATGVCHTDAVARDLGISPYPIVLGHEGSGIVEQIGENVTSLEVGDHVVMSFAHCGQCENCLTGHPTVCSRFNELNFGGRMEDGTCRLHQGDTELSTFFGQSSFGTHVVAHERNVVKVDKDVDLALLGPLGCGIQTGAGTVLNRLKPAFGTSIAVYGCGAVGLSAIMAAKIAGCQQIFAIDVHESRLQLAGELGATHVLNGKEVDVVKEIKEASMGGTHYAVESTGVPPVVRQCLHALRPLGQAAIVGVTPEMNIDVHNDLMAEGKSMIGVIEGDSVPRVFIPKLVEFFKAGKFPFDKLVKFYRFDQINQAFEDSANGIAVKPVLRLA

B1: AORAa (Aromatoleum aromaticum EbN1) (protein)
chain 1: MGWNRKVLRVNLAEGTCTPEPLNMQWADEYLGSRGLATKYLVSETDPKVDPLSPDNKMIMATGPLTGTMASTGGRYTVVTKGPLTGAIACSNSGGFFGAEMKFAGWDMVIFEGRSPTPVYLFIENERAELRDASYLWGRSCWETEESIRAQHQDPLIRVSSIGRAGENQVMFACIVNDLHRAAGRSGVGAVMGSKNLKAVAIRGTKGVSGIRDFPGFVRATSEAKKVLAGNPVTSEGLPKFGTQVLMNVINEMGALPTRNHRDVQFEDASKISAEAMHEKRPSDGKPQLVTNAACFGCTIACGRISAIDKTHFTVKNNPKYWGASGGLEYEAAWALGAANGVGDLEALQYANLLCNEQGMDPISFGATVGAAMELYETGVLTKERIGLDAPFGSADALAKLAEMTATGEGFGKEIGLGSKRLCEKYGHPELSMSVKGQEFPAYDSRGIQGMGLAYATSNRGACHLRGYTVASEVLGVPVKTDPHVIEGKAELVKAFQDATAVFDSAGICVFTSFAWTLADVQPQIAAACDGDWSMDKLATVGERIWNMERQFNNAAGLGAQDDNLPPRLTSEPAKSGPAKGMVNRLAEMLPEYYGVRGWTPEGTPTPETLSRLGLS
chain 2: MKHVILGNGPAGVIAAETLRRAAPTDDILLFGSEDAPPYSRMAIPYLLEGNIDESGTWLRKSPGHFDRLRIHEMRGRAVSLDSERRRILFDDGHFESWDRLLIATGSHPVRPPIPGIDLPEVQTCWTLEDARAIARFATPGARVLQLGAGFIGCIIMEALAARGVELTVVEMGDRMVPRMMTPTAGGMIRKWVEDQGVRVVTNAGVSRIDCRASNDAPLDVTLSTGEVVVADLVIVAAGVAPNIAFLEATPVHVAKGVLVDDRLQTSVPGIFAAGDVAEAPDLFTGAHLVAAIQPNAADQARVAALNMAGHEARLKGVLAINVLDTLGLISSSFGQWWGEERERGGAGVEHVDEAAYRYLSLQFKDDVLIGATSIGLTEHVGALRGLIHGRVRLGEWKERLLHSPLQFVDAYIARSQQPMALVR
notes: full-length AorABC, N-terminal Twin-Strep-tag on AorA, co-expressed with AorDE in Aromatoleum evansii; (alpha-beta)2-gamma complex, 218 kDa; with Aldehyde oxidoreductase polyferredoxin (iron-sulfur) subunit alpha

Columns and labels:
BaDH = target: T1, BaDH; test: coupled assay with AORAa, NADPH at […] nm and HPLC of benzyl alcohol; assay type: biochemical; settings: 100 mM citric buffer pH 5.5, 30 °C, benzaldehyde formed in situ by AORAa
purified protein [1] = substrate: O=C(O)c1ccccc1; test: purified protein; assay type: biochemical, Aromatoleum aromaticum; settings: 2.5% H2 as electron donor, 0.6 mM NADPH, 100 mM citric buffer pH 5.5, 30 °C, W-cofactor beta-subunit site
purified protein [2] = substrate: NC(=O)c1ccc[n+]([C@@H]2O[C@H](COP(=O)(O)OP(=O)(O)OC[C@H]3O[C@@H](n4cnc5c(N)ncnc54)[C@H](O)[C@@H]3O)[C@@H](O)[C@H]2O)c1; test: purified protein; assay type: biochemical, Aromatoleum aromaticum; settings: 2.5% H2 as electron donor, 100 mM Tris/HCl pH 8.0, 30 °C, anaerobic, FAD gamma-subunit site expected
[3] = substrate: O=Cc1ccccc1; test: steady-state kinetics, initial rates of benzaldehyde oxidation with NAD+; assay type: biochemical, Aromatoleum aromaticum; settings: 1 mM NAD+, Tris/HCl pH 8.0, 30 °C, aerobic, W-cofactor beta-subunit site
Excerpt: steady-state kinetics, initial rates of benzaldehyde oxidation with NAD+ on AORAa

Row | Molecule | coupled assay with AORAa, NADPH at 365 nm and HPLC of benzyl alcohol (BaDH) | Km (purified protein [1]) | kcat (purified protein [1]) | Km (purified protein [2]) | Vmax (purified protein [2]) | kcat (purified protein [2]) | kcat/Km (purified protein [2]) | Km [3] | Vmax [3] | kcat [3] | kcat/Km [3]
1 | NC(=O)C1=CN([C@@H]2O[C@H](COP(=O)(O)OP(=O)(O)OC[C@H]3O[C@@H](n4cnc5c(N)ncnc54)[C@H](OP(=O)(O)O)[C@@H]3O)[C@@H](O)[C@H]2O)C=CC1 [NADPH] | confirming that NADPH was only turned over by BaDH, not by AORAa |  |  |  |  |  |  |  |  |  | 
2 | O=Cc1ccccc1 [benzaldehyde] | it also catalyzed the reduction of benzaldehyde with either NADH or NADPH |  |  |  |  |  |  |  |  |  | 
3 | B1 |  | 33700 µM | 1.4 s⁻¹ | 21.7 ± 2.7 µM | 3.7 µmol/min/mg | 13.4 s⁻¹ | 600000 M⁻¹ s⁻¹ | 39.3 ± 6.6 µM | 33.8 µmol/min/mg | 123 s⁻¹ | 3.1e+06 M⁻¹ s⁻¹
